Experimental data taken from patent publication US20250179205A1 (Hoffmann-La Roche, published 2025).
Positions count from the first letter of the chain named. Blank lines part the entries; values can stand above or below the binder they belong to.

Experiments:
[1] = biological target: T1, human fibroblast activation protein (huFAP) (human, UniProt Q12884 1-760); assay: flow cytometry on NIH/3T3-huFAP clone 19 cells, PE-labelled anti-human IgG Fcgamma F(ab')2 secondary, MFI baseline corrected
T1 construct: expressed on transfected NIH/3T3-huFAP clone 19 cells; also called human FAP
Procedure: (§1) NIH/3T3-huFAP clone 19 and NIH/3T3-mFAP clone 26 were generated by the transfection of the mouse embryonic fibroblast NIH/3T3 cell line (ATCC CRL-1658) with the expression vector pETR4921 to express under 1.5 μg/mL Puromycin selection huFAP or mFAP, respectively.
NIH/3T3-huFAP, NIH/3T3-mFAP or NIH/3T3-wt cells were cultured with 1× Dulbecco's Modified Eagle's Medium (DMEM) (Gibco, Cat. No. 42430-025) supplemented with 10% Fetal Bovine Serum (FBS) (life technologies, Cat. No. 16140, Lot No. 1797306A). For the NIH/3T3-huFAP and NIH/3T3-mFAP cells 1.5 μg/mL Puromycin (Gibco, Cat. No. A11138-03) was added to the medium for selection of FAP-expressing cells. NIH/3T3 cells were removed from the plate by using enzyme-free Cell Dissociation Buffer (Gibco, Cat. No. 13151014). 0.3×10⁵ NIH/3T3-huFAP clone 19, NIH/3T3-mFAP clone 26 or NIH/3T3-wt were added in 200 μl of 1×DMEM 10% FBS to each well of a round-bottom 96-well plate (Greiner Bio-One, CELLSTAR®, Cat. No. 650185). Plates were centrifuged 5 minutes at 1700 rpm and supernatants were flicked off. Cells were washed once with 200 μL of 4° C. cold FACS buffer (eBioscience, Cat. No. 00-4222-26). All samples were resuspended in 50 μL/well of 4° C. cold FACS buffer containing the bispecific antigen binding molecules (primary antibody) or isotype control antibody DP47 at the indicated range of concentrations (in duplicates) and incubated for 120 minutes at 4° C. Afterwards the cells were washed three times with 200 μL 4° C. cold FACS buffer. Cells were further stained with 25 μL/well of 4° C. cold secondary antibody solution (1:50 dilution of secondary antibody) containing R-Phycoerythrin (PE) conjugated AffiniPure F(ab′)₂ Fragment Goat Anti-Human IgG, Fcγ Fragment Specific (Jackson ImmunoResearch, Cat. No. 109-116-098) and incubated for 60 minutes at 4° C. in the dark. Cells were washed with 200 μl FACS buffer and resuspended in 85 μL/well FACS-buffer containing 0.2 μg/mL DAPI (Roche, Cat. No. 10236276001) and acquired the same day using 5-laser LSR-Fortessa (BD Bioscience with DIVA software). […]

human CD40 [2] = biological target: T2, human CD40 (human, UniProt P25942 21-277); assay: flow cytometry, Daudi cells, PE anti-human Fc F(ab')2
T2 construct: on Daudi cells, Raji cells, human B cells or HEK-Blue CD40L cells; also called hu CD40; CD40 receptor
Procedure: The binding to cell surface CD40 was tested using Daudi cells, a human B lymphoblast cell line with high expression levels of human CD40 (ATCC CCL-213). Daudi cells were cultured with 1× Dulbecco's Modified Eagle's Medium (DMEM) (Gibco, Cat. No. 42430-025) supplemented with 10% Fetal Bovine Serum (FBS) (life technologies, Cat. No. 16140, Lot No. 1797306A). 0.3×10⁵ Daudi cells were added in 200 μl of 1×DMEM with 10% FBS to each well of a round-bottom 96-well plate (Greiner Bio-One, CELLSTAR®, Cat. No. 650185). Plates were centrifuged 5 minutes at 1700 rpm and supernatants were flicked off. Cells were washed once with 200 μL of 4° C. cold FACS buffer (eBioscience, Cat. No. 00-4222-26). All samples were resuspended in 50 μL/well of 4° C. cold FACS buffer containing the bispecific antigen binding molecules (primary antibody) or isotype control antibody DP47 at the indicated range of concentrations (in duplicates) and incubated for 120 minutes at 4° C. Afterwards the cells were washed three times with 200 μL 4° C. cold FACS buffer. Cells were further stained with 25 μL/well of 4° C. cold secondary antibody solution (1:50 dilution of secondary antibody) containing R-Phycoerythrin (PE) conjugated AffiniPure F(ab′)₂ Fragment Goat Anti-Human IgG, Fcγ Fragment Specific (Jackson ImmunoResearch, Cat. No. 109-116-098) and incubated for 60 minutes at 4° C. in the dark. Cells were washed with 200 μl FACS buffer and resuspended in 85 μL/well FACS-buffer containing 0.2 μg/mL DAPI (Roche, Cat. No. 10236276001) and acquired the same day using a 5-laser LSR-Fortessa (BD Bioscience with DIVA software). Data analysis was performed using the FlowJo version 10 software (FlowJo LLC).

[3] = biological target: T3, mouse fibroblast activation protein (mFAP) (mouse, UniProt P97321 1-761); assay: flow cytometry on NIH/3T3-mFAP cells (3T3_mFAP), PE-labelled anti-human IgG Fcgamma F(ab')2 secondary, MFI baseline corrected
T3 construct: expressed on transfected NIH/3T3-mFAP clone 26 cells; also called murine FAP; mouse FAP
Procedure: as §1
(§2) NIH/3T3-huFAP, NIH/3T3-mFAP or NIH/3T3-wt cells were cultured with 1× Dulbecco's Modified Eagle's Medium (DMEM) (Gibco, Cat. No. 42430-025) supplemented with 10% Fetal Bovine Serum (FBS) (life technologies, Cat. No. 16140, Lot No. 1797306A). For the NIH/3T3-huFAP and NIH/3T3-mFAP cells 1.5 μg/mL Puromycin (Gibco, Cat. No. A11138-03) was added to the medium for selection of FAP-expressing cells. NIH/3T3 cells were removed from the plate by using enzyme-free Cell Dissociation Buffer (Gibco, Cat. No. 13151014). 0.3×10⁵ NIH/3T3-huFAP clone 19, NIH/3T3-mFAP clone 26 or NIH/3T3-wt were added in 200 μl of 1×DMEM 10% FBS to each well of a round-bottom 96-well plate (Greiner Bio-One, CELLSTAR®, Cat. No. 650185). Plates were centrifuged 5 minutes at 1700 rpm and supernatants were flicked off. Cells were washed once with 200 μL of 4° C. cold FACS buffer (eBioscience, Cat. No. 00-4222-26). All samples were resuspended in 50 μL/well of 4° C. cold FACS buffer containing the bispecific antigen binding molecules (primary antibody) or isotype control antibody DP47 at the indicated range of concentrations (in duplicates) and incubated for 120 minutes at 4° C. Afterwards the cells were washed three times with 200 μL 4° C. cold FACS buffer. Cells were further stained with 25 μL/well of 4° C. cold secondary antibody solution (1:50 dilution of secondary antibody) containing R-Phycoerythrin (PE) conjugated AffiniPure F(ab′)₂ Fragment Goat Anti-Human IgG, Fcγ Fragment Specific (Jackson ImmunoResearch, Cat. No. 109-116-098) and incubated for 60 minutes at 4° C. in the dark. Cells were washed with 200 μl FACS buffer and resuspended in 85 μL/well FACS-buffer containing 0.2 μg/mL DAPI (Roche, Cat. No. 10236276001) and acquired the same day using 5-laser LSR-Fortessa (BD Bioscience with DIVA software). Data analysis was performed using the FlowJo version 10 software (FlowJo LLC).

human CD40 [4] = biological target: T2, human CD40; assay: cell-based or functional assay
human CD40 [5] = biological target: T2, human CD40; assay: cell-based or functional assay; remark: listed apart in the source
[6] = biological target: T1, human fibroblast activation protein …; assay: flow cytometry, NIH/3T3-huFAP clone 19 cells, PE anti-human Fc F(ab')2
Procedure: as §1, §2

T2 sequence (P25942 21-277 limits assumed): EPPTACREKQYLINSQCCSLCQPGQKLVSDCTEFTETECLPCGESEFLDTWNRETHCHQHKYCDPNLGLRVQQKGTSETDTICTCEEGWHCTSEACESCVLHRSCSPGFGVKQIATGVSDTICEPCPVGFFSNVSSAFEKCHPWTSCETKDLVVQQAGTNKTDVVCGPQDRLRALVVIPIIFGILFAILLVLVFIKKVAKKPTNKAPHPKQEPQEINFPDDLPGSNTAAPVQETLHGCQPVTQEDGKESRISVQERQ
T3 sequence (P97321 whole entry): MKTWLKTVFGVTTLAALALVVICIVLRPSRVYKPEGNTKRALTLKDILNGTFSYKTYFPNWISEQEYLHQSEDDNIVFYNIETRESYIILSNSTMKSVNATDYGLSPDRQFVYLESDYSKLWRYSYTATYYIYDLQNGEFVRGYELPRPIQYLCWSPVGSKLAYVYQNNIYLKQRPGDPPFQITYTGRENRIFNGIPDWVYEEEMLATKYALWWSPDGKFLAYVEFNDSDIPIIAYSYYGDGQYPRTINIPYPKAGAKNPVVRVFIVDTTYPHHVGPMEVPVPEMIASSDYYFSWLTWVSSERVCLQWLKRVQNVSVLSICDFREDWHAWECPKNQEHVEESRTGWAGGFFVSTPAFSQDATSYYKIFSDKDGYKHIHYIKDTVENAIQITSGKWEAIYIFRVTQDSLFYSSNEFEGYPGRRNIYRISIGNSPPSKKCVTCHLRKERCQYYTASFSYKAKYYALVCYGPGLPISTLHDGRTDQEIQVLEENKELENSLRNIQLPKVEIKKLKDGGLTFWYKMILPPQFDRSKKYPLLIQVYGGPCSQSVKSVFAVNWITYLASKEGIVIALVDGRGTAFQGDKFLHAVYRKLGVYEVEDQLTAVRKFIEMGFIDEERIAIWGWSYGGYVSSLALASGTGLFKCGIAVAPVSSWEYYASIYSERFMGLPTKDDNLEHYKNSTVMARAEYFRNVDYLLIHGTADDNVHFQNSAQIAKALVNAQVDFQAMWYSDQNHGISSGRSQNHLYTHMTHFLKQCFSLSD

binding result [1]: no binding (tested: 500 nM) | EC50 (human CD40 [2]): 31 pM | binding result [3]: no binding (tested: 500 nM) | EC50, activation of HEK-Blue CD40L cells (SEAP) with murine FAP-coated Dynabeads (human CD40 [4]): 421 pM | EC50, activation of human Daudi cells (CD70 expression) with FAP-coated Dynabeads (human CD40 [5]): 166 pM
B1: P1AD4574 CD40 × DP47 (4 + 1) (bispecific antibody)
heavy 1: not shown
heavy 2: not shown
light: DIQMTQSPSSLSASVGDRVTITCRSSQSLVHSNGNTFLHWYQQKPGKAPKLLIYTVSNRFSGVPSRFSGSGSGTDFTLTISSLQPEDFATYFCSQTTHVPWTFGQGTKVEIKRTVAAPSVFIFPPSDEQLKSGTASVVCLLNNFYPREAKVQWKVDNALQSGNSQESVTEQDSKDSTYSLSSTLTLSKADYEKHKVYACEVTHQGLSSPVTKSFNRGEC
notes: also called huCD40-DP47

EC50 (read off the curve) [1]: ~4000 pM | EC50 (read off the curve) [3]: ~4000 pM | EC50 [6]: 3640 pM
B2: P1AD4455 CD40 × FAP (28H1) (4 + 2) (bispecific antibody, human IgG1, kappa, L234A L235A)
heavy: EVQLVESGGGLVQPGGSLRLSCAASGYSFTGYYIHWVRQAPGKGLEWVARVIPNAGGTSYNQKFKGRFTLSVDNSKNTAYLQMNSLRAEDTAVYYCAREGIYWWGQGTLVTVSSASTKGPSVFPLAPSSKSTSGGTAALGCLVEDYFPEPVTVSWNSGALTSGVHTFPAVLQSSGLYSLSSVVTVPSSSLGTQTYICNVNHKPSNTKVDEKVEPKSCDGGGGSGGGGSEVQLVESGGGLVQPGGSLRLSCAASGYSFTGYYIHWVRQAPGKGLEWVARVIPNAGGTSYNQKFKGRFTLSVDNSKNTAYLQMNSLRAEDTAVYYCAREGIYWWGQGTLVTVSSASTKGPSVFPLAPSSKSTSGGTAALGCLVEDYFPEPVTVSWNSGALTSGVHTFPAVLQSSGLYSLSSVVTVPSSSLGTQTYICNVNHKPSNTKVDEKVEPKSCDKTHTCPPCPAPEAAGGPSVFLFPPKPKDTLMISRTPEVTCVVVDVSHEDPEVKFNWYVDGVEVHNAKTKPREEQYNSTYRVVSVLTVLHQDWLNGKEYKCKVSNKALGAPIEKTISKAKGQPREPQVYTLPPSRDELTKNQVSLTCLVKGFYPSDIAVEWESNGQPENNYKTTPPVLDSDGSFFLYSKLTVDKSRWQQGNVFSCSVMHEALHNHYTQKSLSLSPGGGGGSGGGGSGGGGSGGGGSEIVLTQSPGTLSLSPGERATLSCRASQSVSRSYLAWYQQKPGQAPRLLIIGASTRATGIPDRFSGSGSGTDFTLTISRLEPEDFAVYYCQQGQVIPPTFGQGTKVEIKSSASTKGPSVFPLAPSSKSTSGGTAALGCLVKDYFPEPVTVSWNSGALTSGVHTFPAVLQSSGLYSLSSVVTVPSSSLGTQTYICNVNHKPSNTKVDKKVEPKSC
light 1: B1 light with E128R, Q129K
light 2: EVQLLESGGGLVQPGGSLRLSCAASGFTFSSHAMSWVRQAPGKGLEWVSAIWASGEQYYADSVKGRFTISRDNSKNTLYLQMNSLRAEDTAVYYCAKGWLGNFDYWGQGTLVTVSSASVAAPSVFIFPPSDEQLKSGTASVVCLLNNFYPREAKVQWKVDNALQSGNSQESVTEQDSKDSTYSLSSTLTLSKADYEKHKVYACEVTHQGLSSPVTKSFNRGEC
notes: tetravalent for CD40, bivalent for FAP; also called CD40 × FAP 4 + 2; huCD40-28H1

binding result [1]: no binding (tested: 500 nM) | EC50 (human CD40 [2]): 36 pM | binding result [3]: no binding (tested: 500 nM)
B3: P1AD4465 CD40 × DP47 (4 + 2) (bispecific antibody)
heavy: not shown
light 1: B1 light with E128R, Q129K
light 2: not shown
notes: also called huCD40-DP47
